Protein production data for 29 sequences are collected here from a protein production outcome set (Wang et al. 2014).
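Further: failed if final PepcDB status was selected cloned or expressed and not failed if soluble or beyond.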

The series can be described thus: label from the status in PepcDB records.
Turning to “TEKTALHLRARRNFRDFRGVSRRTGEEWLVTVQDTEAHVPDVHEEVLGVVPITTLGPHNYCVILDPVGPDGKNQLGQKRVVKGEKSFFLQPGEQLEQGIQDVYVLSEQQGLLLRALQPLEEGEDEEKVSHQAGDHWLIRGPLEYVPSAKVEVVEERQAIPLDENEGIYVQDVKTGKVRAVIGSTYMLTQDEVLWEKELPPGVEELLNKGQDPLADRGEKDTAKSLQPLAPRNKTRVVSYRVPHNAAVQVYDYREKRARVVFGPELVSLGPEEQFTVLSLSAGRPKRPHARRALCLLLGPDFFTDVITIETADHARLQLQLAYNWHFEVNDRKDPQETAKLFSVPDFVGDACKAIASRVRGAVASVTFDDFHKNSARIIRTAVFGFETSEAKGPDGMALPRPRDQAVFPQNGLVVSSVDVQSVEPVDQRTRDALQRSVQLAIEITTNSQEAAAKHEAQRLEQEARGRLERQKILDQS”, the protein production entry is “failed”.

As to “TIADVQSSRDLRNLPINQVGIKDLRFPITLQTAEGIQSTIARLTMTVYLPAEQKGTHMSRFVALMEQHAEALDFAQLRKLTTEMVALLDSRAGKISVSFPFFRKKTAPVSGIRSLLDYDVCLTGEIKDGAYGHSMKVMIPVTSLCPCSKEISQYGAHNQRSHVTVSLTADAEVGIEEVIDYVEAQASCQLYGLLKRPDEKYVTEKAYENPKFVEDMVRDVATSLIADKRIKSFVVESENFESIHNHSAYAYIAYP”, the protein production result was “not failed”.

Consider “TKDFNLNVSATYNFNKNNIDELDGGKDIYYNSGWGSSAQHPSYDYVLSEGKPVGVIRGFKSAGFYTVDDFDYVDGVYKLKAGIPDISTAATGTYRRPSELQVADGQIAFPGALKLQDVDKSGIVDLDDVVDLGEVQAKHTGGFSLNGNYKNIDFGANFTYQIGGKVYNVATMSQLSGGKETGLGLNKYKDLAGAFQLYDIQNGNLVPVIEPTALKQLNANAKYALPYYEDAPILSDYVEDASYLRLNTLTVGYTLPKAWTTKAYMQKVRIYVTGGNLFCITGYSGLDPEVNSDPDKAKSYPTLGLDWGAYMRARTFTVGLNVEF”, for which the protein production result was “failed”.

As for “TLHKERRIGRLSVLLLLNEAEESTQVEELERDGWKVCLGKVGSMDAHKVVAAIETASKKSGVIQSEGYRESHALYHATMEALHGVTRGEMLLGSLLRTVGLRFAVLRGNPYESEAEGDWIAVSLYGTIGAPIKGLEHETFGVGINHI”, the protein production entry is listed as “not failed”.

In the case of “TLRKARVKGLFLLSSGLQFSQSDHHPGGIPLAVIRHMSRQLKRNRTDTLTSFYEQMFSESEKSHGLDQAFLQTLEAGDPFYHWQNESLIAGLDYLANVQLLQGWPTVSVPITWIHGSDDTICPSPASGLFSPSKRLIIVEGAGHVPFYTQDSVVINAWEELLGN”, the protein production entry is on record as “failed”.

Regarding “TPEHRAVAREVAAETFVLLKNENHLLPLEEKGKIALIGPMADARNNMCGMWSMTCTPSRHGTLLEGIRSAVGDKAEILYAKGSNVYYDAEMEKGAVGIRPLERGNDQQLLAEALRTAARADVIVAAVGECAEMSGESPSRTNLEIPDAQQDLLKALVKTGKPVVLLLFTGRPLILNWESEHIPSILNVWFGGSETGDAVADVLFGKAVPCGKLTTTFPRSVGQLPLFYNHLNTGRPDPDNRVFNRYASNYLDESNEPLYPFGYGLSYTDF”, the protein production entry was “not failed”.

Regarding “TQKKVEVETLEQKIIRADRELAELLEIDEGDEVNYRVVYLRANGEIYAKAISFTPLKRLENSFREDLMRADIPIGKIMRKHNIEARREIRWSRVEEADLALAKELGIADRRVISRNYNIIHRGKVLINITEFFPMERFR”, the protein production result was “failed”.

For the sequence “TSAGWVSVAIGPLPLRCWWSPPAGCRRDIDNISIENRAYIVLPEVFGVNAWVRSVADRLAAQGIPALAVPLFARTAPELELAYESCDLAQGRAHKDATTASQILSDVSAAVAWLQQRCPNAAIDLAGFCFGGHAALLAATLPQIRHSFDFYGAGVSRMRPGGGAPSLELLPQVSGQLTCVCGSADPLIPEEDRTTIRSALAAADPSGKRMSYIEIDGVDHGFMCEARGSFDADASALGWQLMLA”, the protein production entry is “failed”.

On to “TSLEEITKAIMADSQNKVFTEKNIEPLFAAPKTARINIVGQAPGIKAQESRLYWNDKSGDRLREWMGVDYDTFYHSGYFAVIPMDFYYPGKGKSGDLPPRKGFAQKWHQPILDLLPDIQLTILIGNYAQKYYLHQKSSVKLTDTVAHYKKYLPDYFPLVHPSPRNQIWMSRHPWFEAQVVPDLKKIIQQII”, for which the protein production result is “not failed”.

As for “TTLASIGKDIIEDADGIAMPHQWLEGNLPVSAKCTVCDKTCGSVLRLQDWRCLWCKAMVHTSCKESLLTKC”, the protein production entry is on record as “not failed”.

On to “TVNVTTKKTPPSQPPGNVVWNATDTKVLLNWEQVKAMENESEVTGYKVFYRTSSQNNVQVLNTNKTSAELVLPIKEDYIIEVKATTDGGDGTSSEQIRIPRITS”, for which the protein production entry is given as “not failed”.

In the case of “TWILTADSPSLLGTVDVVTRYLFEQRCYVTEHHSFDDRLAQRFFIRVEFRAGDGFDEASFRAGLAERVAPFGMRTELTAPGYRSQVAIMVSKADHCLNDLLYRQRIGQLPMDVVAVISNHPDLEPLARWHGIPYHHFPLDPNDKPAQEARVWQVLEESGAELVILARYMQVLSPELCRRLDGWAINIHHSLLPGFKGAKPYHQAYQKGVKLVGATAHYINNDLDEGPIIAQGVETVDHAHYPEDLIAKGRDIECLTLARAVGYHIERRVFLNANRTVVL”, the protein production result is “failed”.

As to “TWTDIRYREEGNAGFLSFSFPGGAMSTAQCRRLLDAYRDACTRPTSVLVLGGERDFFSNGIHLNVIEAADDPGAESWANINAIDDLVEAVLTTTDR”, the protein production entry is reported as “failed”.

As for “VATLNESIEAGLEPGAVALILEAFPIEDRVRLWRALPLELHIDVLTEMRADVRFSIINALSEVELKLTLAKLDNLSLIEWADSLPESIINEALALIEKDELELYDQANEYEDDELGRWAERKIITLPFNITVGTAKQLMERYSYDTPQQVYLINRNKQFRGAVNYYEILRSDSGVRLKTLEIETVTVLDSKMTLPEAVEALEHSALPALPVTDADQTLIGEVDWQFALSTQREIYEARLMAGTGMDEGDDLFAPVLKSSQKRGV”, the protein production result is given as “not failed”.

Take “VAVINSAQDAPSEAPTEVGVKVLSSSEISVHWEHVLEKIVESYQIRYWAAHDKEEAANRVQVTSQEYSARLENLLPDTQYFIEVGACNSAGCGPPSDMIEAFTKKA”: the protein production result is recorded as “not failed”.

“VDAGRGAEHDEAVTSDDSASVEVPRRATPADAATVAQMLHDFNTEFGAPTPGTDELASRLSHLLAGEDVVVLLAGEPPTGLAVLSFRPNVWYPGPVAILDELYVRPGRRGHRLGSALLAASCGLVRSRGGALLEINVDGEDTDARRFYEARGFTNTEPNGTEPMLYYYREL”: the protein production entry is listed as “not failed”.

On to “VDKCDEPLSILVRNNKGRSSTYEVRLTQTVAHLKQQVSGLEGVQDDLFWLTFEGKPLEDQLPLGEYGLKPLSTVFMNLRLRGGGTEP”, for which the protein production entry is listed as “failed”.

In the case of “VDKKAPQISFQARLLRDNVTIFLDFSGRGLFQRGYREHSGAAPLKENLAAALIIRSGWLNDTSKPLVDPMCGSGTILIEAVSMAAKQAPAINRQSWGFEAWLSHDNAVWQKQLTLAIDSSEENMSNLKVKVFGIDIDERVLRTAQQNARNAQLHQYIEFTCKNTNDMDNTFGQPGTILFNPPYGERIGELPELVENFVLFGQKLKMQFKDWRIAILTANVDLLSMLKLSSFKRYKFKNGPLDCQLALYNLDAKQG”, the protein production entry is “failed”.

With “VEPVPDTHLRGITCLDHENEKVNMYCVSDDQLICALCKLVGRHRDHQVASLNDRFEKLKQTLEMNLTNLVK”, the protein production result is reported as “not failed”.

For “VGTIDQLVKRVIEGSLSPKERTLLKEDPAYWFLSDENSLEYKYYKLKLAEMQR”, the protein production entry was “not failed”.

As to “VILSATRPFVCSRAPLGLSESAFMPLNGRTKMITKMPFRLVSLSCLELHRASSFWDIGFCTGSVSIEAKLNFPHLHITAFEIRPEGAELMPVNSRRFGAPGIAYRIGDFMEEDISSLAPPDAVFIGGHGGRLVEMIAKVHSVMTKGGLLVFNSVSEESRHLFLTGIEACGMELLSSIRLTADGNNPIDILQARKKE”, the protein production result is reported as “failed”.

As to “VITVGNYKGGAGKTTNVVLLAYKLAKKGLKVCVLDLDPQSNATKSLLLTKSSLYQDEVVTIEKTLMTGISEKNLDGLEVKIMDNLYLLPSYIDFEDFPKYLYKNTSNQREEDYYLKNIFTPLQGKYDIVLIDVPPMSKAVTRNAVICSDYVLISLQTHERSLSGAESYVEELNKLHNEYDLDLEVVGVLPVIHKNNGSVDQYVMEVAKETFGEDNLFENVVPQMERIKRFDVNGITDKDRHDQKVLNLYDKVSDELLD”, the protein production result is reported as “failed”.

On to “VIVDSVGNVLSDGDTVSITKTIKVKGAQQPLKSGMKARNIRLKPEVGTGPEDHNIECKIDGFGQMILKPAVVKKIV”, for which the protein production result is given as “failed”.

Consider “VIWNQLDARERLERQNDLFRRAQKLANIGAWEYEVSSGEVFWTRQVREIHGLPQGYEPTAEEAIAAYHPEDQPVIQGMIERAVEEEVPFDRELRLGGEALPVGHEQKEGRWVRARGTPQIEAGEVTSVRGTFQDITERKAREHVLENEREALRSMYRITADREAGFEEKARRLIDLGREHLGLPYGFLTRITDETQEIVFASGTHPLLQPGESCPLSRSYCRNTIQEERSLVVQDAVAEGWAGDPAHQTFELGAYVGAQIIVEGELYGTFCFAAEEPREQAFAGRERVFVELMAQWASYELGQRRAKAQLKRQNARLDSFAGLVAHDLRNPLNVATGRLRLAREER”, for which the protein production result is “failed”.

Consider “VKAAQGLLLSVFHLYPKRKVEIILYNEKWAECFDEEKERLKLVFGPEIIAIHHIGSTSIPNMAAKPIIDMLIEVRSIEAVSQFDEQMKANGYTPKGENGIAGRRYFQKGGNKRTHHVHMYEQGNPAIERHLLFRDYLRAHPNIAKEYAVLKKQLAAQHPDSINQYIQGKDEWIKTAEENAKRWKKGRNNANGSIVCYNSENDENGGFTL”, for which the protein production entry is recorded as “failed”.

As for “VLAPNVYFNPDAPPRKKRPLNVCAPEVVFFPTEDGVNLRLTRYNGGGKGPVMLVHGLGVGSNIFSTDTISTNLLEYLYQHGYDVWLLDFRVSILLPASQQQWDGDQVARYDYPAAIRRIREATGAADVQCVVHCYGATTFFMSMLAGLEGVRSVVCSQIAADIVVPTATQVKTGLHLPTVLDKLGVSSLTAYTASDSNWFEKLYDTALKGYALAEAQGYCNNPVCHRITFMYASLYRHETLNETLHDNLHELFGVANMRTMEHLARMCREGRLVSFDGDDIYMPHFDRLQMPILFISGEQNECYLPESTERTFDKLAQRFGPERYSRLVVPGYGHIDCMFGKNAAADVYPAIVAHLDKT”, the protein production entry is reported as “failed”.

For “VLESVRKEWLEIMDRELLEKARSLINANYISTTLSTVDRNYEVNIAVISVLEMIGDDTIICARFGADKTYANLKETGKGVFMVLLTDNDKSKDGIRVYVELSADLQEGEYFDRIKKRLDNTTYKNFPLKNCLVFKIVKILPVSLLRK”, the protein production entry is reported as “not failed”.

“VLLAITTGLVASLVNAKAYKGAEIFTNDAYLYGRYEIRMRVANASGILSTFFTYKNGSEVGNTFWEEIDIEVFGKNNATQWQSNIILGSSRPTIHTEEIHTADTSLADAYHTYVVEWTPDYVAWFLDGVEVRRITGTSTVTSLTNAQSLRFNIWSSESVPWVGAWDDSVLPVYQFVNYIDYKAYNATTKTFEGGWRDDFNNFDSSRWGKANWSFDMNRVDFAPENALVKDGILVLALTKENATGFNGTPPADEPASSSSSVAASSTPASSIAASSIAASVAASSVAVATSSVAASKASGGGSGGGAINGMWLLMLGSFVLLGWVHNQRQSHQQHQ”: the protein production result is recorded as “failed”.

As to “VLTPRHIATLFTKLIPFKKNDKILDLCCGTGAFLIAGMNKLLSLKGIDAQNVKSNQLLGFEINPTMYICAISNMLFRGDGKSKIYNMDSINDDKVNKIISESAPTIGFINPPYSGKENKEDPTPKEITFLKKC”, the protein production result is “failed”.
